From patent publication US7425333B2, “Hypoallergenic allergy vaccines based on the timothy grass pollen allergen Phl p 7” (Biomay Produktions-und Handels-Aktiengesellschaft, priority 2002, dated 2008) come the findings set out here.

Series [1] in a line: Secondary structure analysis by far-UV CD. Format: physicochemical. Particulars: for secondary structure (far-UV CD spectra): 20° C., 0.1 cm cell. The method, then:
CD measurements were carried out on a Jasco J-715 spectropolarimeter using a 0.1 cm pathlength cell equilibrated at 20° C. Spectra were recorded with 0.5 nm resolution at a scan speed of 100 nm/min and resulted from averaging 3 scans. The final spectra were baseline-corrected by subtracting the corresponding MilliQ spectra obtained under identical conditions. Results were fitted with the secondary structure estimation program J-700.

Series [2] has as its system timothy grass pollen allergic patients and a non-atopic individual. In words: Skin prick testing (SPT), immediate type skin reactions. Format: in vivo, human. Particulars: for mean wheal diameter: 8 μg/ml, timothy grass pollen allergic patients, 20 minutes; for skin reactions in the non-allergic individual: non-allergic individual (#4). On the procedure:
The in vivo allergenic activity of the peptides and the mutant was studied by skin prick testing (SPT) in 3 timothy grass pollen allergic patients and a non-atopic individual. SPTs were performed on the individuals' forearms. Twenty microliter aliquots containing 2 concentrations of complete rPhl p 7 or Phl p 7-derived mutant M4 (2 μg/ml, 8 μg/ml) as well as two concentrations of Phl p 7-derived peptides (1 μg/ml m, 4 μg/ml ) were applied. In addition, standardized skin prick solutions (timothy grass pollen extract and histamine) (Allergopharma, Reinbeck, Germany) were tested. Reactions were recorded 20 minutes after SPT by photography and by transferring the ballpoint pen-surrounded wheal area with a scotch tape to paper. The mean wheal diameter (Dm) was calculated by measuring the maximal longitudinal and transversal diameter and dividing their sum by 2.

The nature of a further series: Solubility observation. Format: physicochemical.
Series [3] has as its system basophils of a timothy grass pollen allergic individual. Briefly: Basophil histamine release. Particulars: granulocytes of one allergic individual; for concentration of maximum histamine release: 10^−6-10 μg/ml tested. In kind it is cell-based, human. On the procedure:
FIG. 3A, B. Induction of histamine release from basophils of a timothy grass pollen allergic patient. Granulocytes of a timothy grass pollen allergic patient were incubated with various concentrations (x-axis) of rPhl p 7 wild type (P7), Phl p 7-derived peptides (P1, P2), Phl p 7-derived mutant (M4) or another antigen (Hom s 4) (FIG. 3A).
Granulocytes were isolated from heparinized blood samples of a timothy grass pollen allergic individual by dextran sedimentation. Cells were incubated with increasing concentrations (10^−6-10 μg/ml) of each peptide or the mutant, and, for control purposes, with rPhl p 7 wild type. Histamine released in the cell-free culture supernatant was measured by radioimmunoassay (Immunotech, Marseille, France). Total histamine was determined after freezing and thawing of the cells.

Series [4] deals with serum IgE of Phl p 7-sensitized grass pollen allergic patients. In words: IgE binding, dot blot with sera from ten timothy grass pollen allergic patients. The arrangement: species or system human. From the text: The polypeptides of the invention show reduced binding to IgE antibodies from timothy grass pollen allergic patients compared with wild type Phl p 7 (SEQ ID NO:1). […] Recombinant Phl p 7 consisting substantially of the amino acid sequence as shown in SEQ ID NO:1 can be used to determine the IgE binding activity of wild type Phl p 7. IgE binding of polypeptides may be determined by Western blot analysis or dot blot experiments using serum from a timothy grass pollen allergic patient. Timothy grass pollen allergy is diagnosed according to a case history indicative for timothy grass pollen allergy (i.e., seasonal symptoms of allergy during the flowering period of grasses), positive skin test reaction to timothy grass pollen allergens and/or the detection of specific IgE antibodies to timothy grass pollen allergens in serum. Dot blots can be quantified by measuring the amount of ^125I-labeled anti-human IgE antibodies by gamma counting as described (Niederberger et al. J. Allergy Clin. Immunol. 1998, 102, 579-591).
(§1) Nitrocellulose blotted rPhl p 7 (lane Phl p 7) and rPhl p 7-derived mutants (lanes M1.6, M2A, M4) were probed with serum from a Phl p 7-sensitized grass pollen allergic patient. Bound IgE antibodies were detected with ^125I-labeled anti human IgE antibodies (FIG. 2A). Nitrocellulose dotted Phl p 7 and Phl p 7-derived mutants (M1.6, M2A, M4) as well the Phl p 7-derived peptides were probed with sera from ten Phl p 7-sensitized grass pollen allergic patients. Bound IgE antibodies were detected with ^125I-labeled anti human IgE antibodies (FIG. 2B).
(§2) The IgE binding capacity of purified Phl p 7-derived mutants (M1.6, M2A, M4) was compared with that of Phl p 7 wild type by western blot analysis using serum from a timothy grass pollen allergic patient (FIG. 2A) as well as by dot blot experiments using sera from ten timothy grass pollen allergic patients (FIG. 2B).
The IgE binding capacity of Phl p 7-derived peptides was compared with that of Phl p 7 wild type by dot blot experiments using sera from ten timothy grass pollen allergic patients (FIG. 2B). For both peptides the IgE binding capacity was completely abolished, when tested with serum from ten timothy grass pollen allergic patients.

The subject of another series is rPhl p 7 wild type. In words: Rabbit immunization, IgG reactivity with Phl p 7 by dot blot. In kind it is in vivo. The conditions noted are these: rabbits, 200 μg/injection, Freund's adjuvant; antiserum 1:500-1:2000.
A further series has as its system recombinant Aln g 4. In words: Rabbit immunization, antiserum reactivity with Aln g 4 by dot blot. The conditions noted are these: rabbit antiserum diluted 1:1000. Format: in vivo.
Series [5] has as its system serum IgE of a Phl p 7-sensitized grass pollen allergic patient. In words: IgE binding, western blot with serum of a timothy grass pollen allergic patient. The arrangement: species or system human. Particulars: serum from one timothy grass pollen allergic patient.
Excerpt: as §1, §2
On the technique in general: Immunoblotting shows a protein as a band on a membrane.

Substitutions are numbered along the chain they refer to. In names and notes the source's numbering stands.

Sequence of recombinant Aln g 4 (O81701 whole entry): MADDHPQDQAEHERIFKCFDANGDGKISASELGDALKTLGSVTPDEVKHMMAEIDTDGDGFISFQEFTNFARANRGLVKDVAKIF

With “N-terminal peptide: synthetic peptide comprising the complete N-terminal calcium-binding domain of Phl p 7 (SEQ ID NO:2), one cysteine added”, the “secondary structure (far-UV CD spectra)” value in series [1] is recorded as “random coil secondary structure”.
Take `NCCc1c[nH]cn1` [histamine, reference compound]: in series [2] (all individuals (3 allergic, 1 non-allergic)), the “skin reaction to positive control” value is listed as “All individuals reacted”.
On to “C-terminal peptide: synthetic peptide comprising the complete C-terminal calcium-binding domain of Phl p 7 (SEQ ID NO:3), one cysteine added”, for which the “secondary structure (far-UV CD spectra)” value in series [1] was “unfolded”. Moreover, in “Solubility observation”, the solubility result is “significant decreased solubility and precipitation”.

B1: Phl p 7 wild type: recombinantly produced wild type timothy grass pollen allergen Phl p 7, amino acid sequence SEQ ID NO:1 (protein)
chain: MADDMERIFKRFDTNGDGKISLSELTDALRTLGSTSADEVQRMMAEIDTDGDGFIDFNEFISFCNANPGLMKDVAKVF
modifications: Phleum pratense
For B1, the “concentration of maximum histamine release” value in series [3] was 10^−4 μg/ml. Also, the “secondary structure (far-UV CD spectra)” value in series [1] is on record as “significant larger α-helical signal”. The “immediate type skin reactions” value in series [2] (skin prick test, 2 μg/ml) is reported as “induced immediate type skin reactions”. In series [2] (skin prick test), the mean wheal diameter was found to be 9.3 mm and the “skin reactions in the non-allergic individual” value was “no reactions”.

B2: M1.6: Phl p 7-derived mutant, SEQ ID NO:4: 24E→24A (first EF-hand); 59E→59A (second EF-hand) (protein)
chain: B1 chain with E24A, E59A
Regarding B2, the “patients whose serum IgE bound (dot blot)” value in series [4] is “six out of ten”.

B3: M2A: Phl p 7-derived mutant, SEQ ID NO:5: 17D→A, 24E→24A; 59E→59A (protein)
chain: B1 chain with D17A, E24A, E59A
As to B3, the “patients whose serum IgE bound (dot blot)” value in series [4] is given as “five out of ten”.

B4: M4: Phl p 7-derived mutant, SEQ ID NO:6: 17D→A, 24E→24A; 52D→52A, 59E→59A (protein)
chain: B1 chain with D17A, E24A, D52A, E59A
With B4, the “induction of IgG anti-Phl p 7 antibody response” value in the series with rPhl p 7 wild type was “induced IgG anti-Phl p 7 antibody responses”. Further, the “concentration of maximum histamine release” value in series [3] is recorded as 10^−3 μg/ml. In series [3] (increasing concentrations), the “induction of histamine release” value is recorded as “dose-dependent release of histamine”. The “secondary structure (far-UV CD spectra)” value in series [1] is listed as “increasing portion of random-coil secondary structure”. In addition, in series [1] (second analysis comparing Phl p 7 and point mutant-4), the “decrease of CD signal in contrast to normalized spectrum of rPhl p 7” value is reported as “approximately 20%”. For the same molecule, in series [2] (skin prick test), the mean wheal diameter is recorded as 7 mm and the “skin reactions in the non-allergic individual” value is “no reactions”. Also, the “immediate skin reactions compared with Phl p 7 wild type” value in series [2] (skin prick test, allergic patients) is “moderately weaker”. Also, in series [4], the “patients whose serum IgE bound (dot blot)” value is recorded as “four out of ten”. Also, the “IgE binding capacity (dot blot)” value in series [4] (compared with Phl p 7 wild type) is reported as “strongest reduction of IgE binding capacity”. In addition, the “recognition of cross-reactive allergen Aln g 4 by rabbit antiserum raised against the immunogen” value in the series with recombinant Aln g 4 is listed as “recognized the Phl p 7-cross-reactive allergen, Aln g 4”. Also, in series [5], the “IgE binding capacity compared to Phl p 7 (western blot)” value is “strongest reduction”.
